Earlier results as cited in patent US11207384B2, “Rapid-acting insulin compositions” (Eli Lilly and Company, priority 2017, dated 2021).

Tests used:
[1] = for time until maximum circulating insulin concentration is reached: following the injection
[2] = on a molar basis
insulin receptor = molecular target: T1, insulin receptor (Homo sapiens, UniProt P06213); conditions: insulin receptor binding in cultured lymphocytes, human placenta and human liver, glucose transport in adipocytes
T1 construct: host or cells: cultured lymphocytes, human placenta, human liver

equivalence to insulin in in vitro tests (in words) (insulin receptor) | Substance | time until maximum circulating insulin concentration is reached [1] | kinetics compared to human insulin (in words) ([1]; Tmax, half-life, Cmax) | effect after subcutaneous injection compared with soluble human insulin (in words) ([1]; subcutaneous injection) | potency relative to human insulin (in words) [2]
– | insulin aspart | 50 to 90 min | – | – | –
– | insulin glulisine | 50 to 90 min | – | – | –
biologically equivalent to insulin | insulin lispro | 50 to 90 min | shorter Tmax and half-life and with a higher Cmax | more rapid and of shorter duration than that of injected soluble human insulin | equipotent to human insulin on a molar basis
